Laboratory results from patent US20230086210A1.

Assays:
[1] = molecular target: human PD-L1 on MKN45-huPD-L1 cells (human) (UniProt Q9NZQ7); assay: flow cytometry on MKN45-huPD-L1 cells, area under the binding curve; parameters: unit not given beside the values
[2] = molecular target: human 4-1BB on Jurkat-hu4-1BB-NFκB-luc2 reporter cells (human) (UniProt Q07011); assay: cell-based or functional assay; parameters: unit not given beside the values
Sequence of human 4-1BB on Jurkat-hu4-1BB-NFκB-luc2 reporter cells (human) (Q07011 24-255): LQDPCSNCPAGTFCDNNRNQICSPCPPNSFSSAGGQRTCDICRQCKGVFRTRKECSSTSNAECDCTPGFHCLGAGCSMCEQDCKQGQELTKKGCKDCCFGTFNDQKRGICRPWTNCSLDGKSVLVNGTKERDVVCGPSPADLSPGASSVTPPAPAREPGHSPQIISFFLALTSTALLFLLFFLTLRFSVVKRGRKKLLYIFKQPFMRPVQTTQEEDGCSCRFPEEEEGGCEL

Sequence of human PD-L1 on MKN45-huPD-L1 cells (human) (Q9NZQ7 19-290 limits assumed): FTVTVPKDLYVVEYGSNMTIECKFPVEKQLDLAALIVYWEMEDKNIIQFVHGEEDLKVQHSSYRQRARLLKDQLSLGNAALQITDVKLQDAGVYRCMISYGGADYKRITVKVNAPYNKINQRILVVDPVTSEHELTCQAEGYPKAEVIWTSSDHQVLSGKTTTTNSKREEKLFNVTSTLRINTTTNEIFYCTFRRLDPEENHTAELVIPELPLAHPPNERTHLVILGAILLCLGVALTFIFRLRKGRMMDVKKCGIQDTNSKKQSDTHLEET

AUC [1]: 248 | AUC of NFκB-activation-induced Luciferase activity curve [2]: 112
Substance: DP47 huIgG1 P329G LALA (antibody)
